Data: publication PMC7290940

Experiments:
Test in all cases: SEC; single purified protein on Superdex 200 10/300 GL, apparent mass against protein standards
[1] = target: untagged CI immunity repressor of bacteriophage 80α (Staphylococcus aureus bacteriophage 80α)
[2] = target: full-length gp44 with C-terminal His6 tag (gp44–His), bacteriophage 80α (Staphylococcus aureus bacteriophage 80α)
[3] = target: untagged gp44 of bacteriophage 80α (Staphylococcus aureus bacteriophage 80α)
[4] = target: gp44-NTD-His (gp44 residues 1–271) (Staphylococcus aureus bacteriophage 80α)

## untagged CI immunity repressor of bacteriophage 80α (natural protein)
[1]
  stoichiometry N: 2

## full-length gp44 with C-terminal His6 tag (gp44–His), bacteriophage 80α (natural protein)
[2]
  stoichiometry N: 2

## untagged gp44 of bacteriophage 80α (natural protein)
[3]
  stoichiometry N: 2

## gp44-NTD-His (gp44 residues 1–271) (domain or fragment)
[4]
  stoichiometry N: 2
